Experimental data from patent KR20220090395A (dated 2022).
Read-outs that look alike come from different tables or passages of the source.

What was measured:
[1] = biological target: SARS-CoV-1 RBD (SARS-CoV-1, UniProt P59594 306-527); assay: binding measurement of Fig. 20; method not given
[2] = biological target: T1, SARS-CoV-2 RBD (Biotinylated SARS-CoV-2 RBD, Acrobio 시스템) (SARS-CoV-2, UniProt P0DTC2 319-537)
[3] = biological target: T1, SARS-CoV-2 RBD (Biotinylated SARS-CoV-2 …); assay: BLI; IgG1 made in CHO cells

B1: D27LEY (IgG1 형태) (antibody, V domains shown)
VH: QVQLQQSGAEVKKPGSSVKVSCKASGGTFGNWSISWVRQAPGQGLEWMGGIAPGRGEATYAQKFQGRVTITTDESTSTAYMELSSLRSEDTAVYYCARETWYTSGGMDVWGQGTTVTVSS
VL: SYELTQPPSVSVAPGKTARITCGGNNIGRKSVHWYQQKPGQAPVLVVYDDSDRPSGIPERFSGSNSGNTATLTISRVEAGDEADYYCQVYDLWSSDYVFGTGTKVTVL
B1 was tested, and the Kd [1] was < 0.001 nM.

B2: D27 항체 (designed full-length antibody D27) (antibody, V domains shown)
VH: QVQLQQSGAEVKKPGSSVKVSCKASGGTFGNWSISWVRQAPGQGLEWMGGIDPSRGEATYAQKFQGRVTITTDESTSTAYMELSSLRSEDTAVYYCARETEQGGMDVWGQGTTVTVSS
VL: SYELTQPPSVSVAPGKTARITCGGNNIGRKSVHWYQQKPGQAPVLVVYDDSDRPSGIPERFSGSNSGNTATLTISRVEAGDEADYYCQVYDLFSDYVFGTGTKVEIK
For B2, the Kd [2] was 175 nM.

B3: D27LE (IgG1 형태) (antibody, V domains shown)
VH: QVQLQQSGAEVKKPGSSVKVSCKASGGTFGNWSISWVRQAPGQGLEWMGGIDPSRGEATYAQKFQGRVTITTDESTSTAYMELSSLRSEDTAVYYCARETWYTSGGMDVWGQGTTVTVSS
VL: SYELTQPPSVSVAPGKTARITCGGNNIGRKSVHWYQQKPGQAPVLVVYDDSDRPSGIPERFSGSNSGNTATLTISRVEAGDEADYYCQVYDLWSSDYVFGTGTKVTVL
B3 gave a Kd [3] of 7.1 nM.
